# From US20170355769A1 (AbbVie / Abbott, published 2017)
# T1: Human B7-H3-ECD (His tag) (human, UniProt Q5ZPR3 29-461)
# T1 construct: SPR analyte; also called huB7-H3; soluble ECD of human B7-H3
# T1 sequence: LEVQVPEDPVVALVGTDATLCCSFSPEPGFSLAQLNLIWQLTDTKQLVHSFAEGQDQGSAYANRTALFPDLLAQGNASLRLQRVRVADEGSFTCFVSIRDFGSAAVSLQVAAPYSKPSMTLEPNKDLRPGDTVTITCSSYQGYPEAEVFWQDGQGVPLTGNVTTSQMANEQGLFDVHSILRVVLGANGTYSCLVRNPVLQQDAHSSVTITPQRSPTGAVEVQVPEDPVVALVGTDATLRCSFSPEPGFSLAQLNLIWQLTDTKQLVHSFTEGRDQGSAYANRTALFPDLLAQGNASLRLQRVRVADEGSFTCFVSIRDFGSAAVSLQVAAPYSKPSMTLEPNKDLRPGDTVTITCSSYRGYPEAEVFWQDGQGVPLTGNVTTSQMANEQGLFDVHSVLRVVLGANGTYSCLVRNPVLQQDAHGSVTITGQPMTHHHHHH
# T2: Human full length B7-H3 (human, UniProt Q5ZPR3 29-534)
# T2 construct: On 3T12 fibroblasts expressing full length human B7-H3 or on NCI-H1650 cells; signal peptide residues 1-28 stated; also called huB7-H3; CD276
# T2 sequence: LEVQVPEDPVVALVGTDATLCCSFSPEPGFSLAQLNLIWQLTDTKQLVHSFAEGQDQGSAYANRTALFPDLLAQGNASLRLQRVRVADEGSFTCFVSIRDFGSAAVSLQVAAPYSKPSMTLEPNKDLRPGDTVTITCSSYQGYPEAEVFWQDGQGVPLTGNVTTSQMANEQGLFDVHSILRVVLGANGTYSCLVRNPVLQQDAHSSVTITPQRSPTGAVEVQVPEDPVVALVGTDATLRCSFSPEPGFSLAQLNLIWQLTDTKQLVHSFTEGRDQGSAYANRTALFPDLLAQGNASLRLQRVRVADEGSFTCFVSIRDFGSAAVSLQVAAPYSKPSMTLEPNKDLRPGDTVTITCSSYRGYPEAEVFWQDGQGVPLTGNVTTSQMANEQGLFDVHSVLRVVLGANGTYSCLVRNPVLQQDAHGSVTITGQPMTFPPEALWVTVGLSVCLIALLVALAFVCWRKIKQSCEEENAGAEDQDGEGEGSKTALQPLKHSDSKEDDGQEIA
# Target: T1, Human B7-H3-ECD (His tag)
# Test: SPR Biacore, naked mAb
# From the text: Biacore T200 SPR instruments were used to measure the binding kinetics of human B7-H3 (analyte) binding to various mAbs (ligands). The assay format was Fc-based capture via immobilized anti-mouse (Fc) (Pierce 31170) or immobilized anti-human (Fc) (Pierce 31125). A standard amine coupling protocol was employed to immobilize the capture reagents via primary amines to the carboxy-methyl (CM) dextran surface of CM5 sensorchips (Biacore); capture antibodies were coupled to a level of approximately 5000RU. For binding kinetic measurements the assay buffer was HBS-EP+ (Biacore): 10 mM Hepes, pH7.4, 150 mM NaCl, 3 mM EDTA, 0.05% polysorbate 20. During the assay, all measurements were referenced against the capture surface alone. Each assay cycle consisted of the following steps: 1) Capture of ligand to approximately 50RU; 2) Analyte injection over both reference and test surface, 240 μL at 80 μL/min, after which the dissociation was monitored for 900 seconds at 80 μL/min; 3) Regeneration of capture surface with low pH glycine. […] Data were processed and fit to a 1:1 binding model using Biacore T200 Evaluation Software to determine the binding kinetic rate constants, kₐ (on-rate) and kd (off-rate), and the equilibrium dissociation constant (affinity, KD).
# These variants were further characterized for binding by SPR and as ADCs conjugated to the Bcl-xL inhibitor synthon (linker warhead) CZ. […] An ADC comprising chAb3 conjugated to synthon CZ was used as a control.
row,Binder,Kd
1,"huAb3v1 (antibody, V domains shown, humanized IgG) VH: EVQLVQSGAEVKKPGSSVKVSCKASGYTFSSYWMHWVRQAPGQGLEWMGLIHPDSGSTNYNEMFKNRVTITADKSTSTAYMELSSLRSEDTAVYYCARGGRLYFDYWGQGTTVTVSS VL: DIVMTQSPLSLPVTPGEPASISCRSSQSLVHSNGDTYLRWYLQKPGQSPQLLIYKVSNRFSGVPDRFSGSGSGTDFTLKISRVEAEDVGVYYCSQSTHVPYTFGGGTKVEIK",0.52 nM
2,"huAb3v5 (antibody, V domains shown, humanized IgG) VH: EVQLVQSGAEVKKPGSSVKVSCKASGYTFSSYWMHWVRQAPGQGLEWIGLIHPDSGSTNYNEMFKNRATLTVDRSTSTAYMELSSLRSEDTAVYYCAGGGRLYFDYWGQGTTVTVSS VL: DVVMTQSPLSLPVTPGEPASISCRSSQSLVHSNGDTYLRWYLQKPGQSPQLLIYKVSNRFSGVPDRFSGSGSGTDFTLKISRVEAEDVGVYYCSQSTHVPYTFGGGTKVEIK",0.23 nM
3,"huAb3v4 (antibody, V domains shown, humanized IgG) VH: EVQLVQSGAEVKKPGSSVKVSCKASGYTFSSYWMHWVRQAPGQGLEWMGLIHPDSGSTNYNEMFKNRVTITADKSTSTAYMELSSLRSEDTAVYYCARGGRLYFDYWGQGTTVTVSS VL: DVVMTQSPLSLPVTPGEPASISCRSSQSLVHSNGDTYLRWYLQKPGQSPQLLIYKVSNRFSGVPDRFSGSGSGTDFTLKISRVEAEDVGVYYCSQSTHVPYTFGGGTKVEIK",0.57 nM
4,"huAb3v3 (antibody, V domains shown, humanized IgG) VH: EVQLVQSGAEVKKPGSSVKVSCKASGYTFSSYWMHWVRQAPGQGLEWIGLIHPDSGSTNYNEMFKNRATLTVDRSTSTAYVELSSLRSEDTAVYFCAGGGRLYFDYWGQGTTVTVSS VL: DVVMTQSPLSLPVTPGEPASISCRSSQSLVHSNGDTYLRWYLQKPGQSPQLLIYKVSNRFSGVPDRFSGSGSGTDFTLKISRVEAEDVGVYFCSQSTHVPYTFGGGTKVEIK",0.23 nM

# Target: T2, Human full length B7-H3
# Test: FACS (Example 6 method)
# Protocol: (§1) Cells were harvested from flasks when approximately 80% confluent using Gibco® Cell Dissociation Buffer. Cells were washed once in PBS/1% FBS (FACS buffer) then resuspended at 2.5×10⁶ cells/mL in FACS buffer. 100 μL of cells/well were added to a round bottom 96-well plate. 10 μL of a 10× concentration of mAb/ADC (final concentrations are indicated the figures). Wells were washed twice with FACS buffer and resuspended in 50 μL of secondary Ab (AlexaFluor 488) diluted in FACS buffer. The plate was incubated at 4° C. for one hour and washed twice with FACS buffer. Cells were resuspended in 100 μL of PBS/1% formaldehyde and analyzed on a Becton Dickinson LSRII flow cytometer. Data was analyzed using WinList flow cytometry analysis software.
# The parental chAb18 from which the variants were derived was also tested as a comparator.
row,Binder,EC50
1,"chAb18-CZ (antibody, IgG1, V domains shown, synthon CZ on reduced interchain Cys) VH: QVQLQQSAAELARPGASVKMSCKASGYSFTSYTIHWVKQRPGQGLEWIGYINPNSRNTDYNQKFKDETTLTADRSSSTAYMQLISLTSEDSAVYYCARYSGSTPYWYFDVWGAGTTVTVSS VL: QIVLTQSPAILSASPGEKVTMTCRASSSVSYMNWYQQKPGSSPKPWIYATSNLASGVPARFSVSVSGTSHSLTISRVEAEDAATYYCQQWSSNPLTFGAGTKLELK",1.14 nM

# Target: T2, Human full length B7-H3
# Test: FACS, cell surface human B7-H3 (as Example 6)
# Protocol: as §1
# Nine anti-B7-H3 chimeric antibodies were conjugated to the Bcl-xL inhibiting (Bcl-xLi) synthon CZ (Example 2.1) using conjugation Method A described below. The resulting ADCs (anti-B7-H3 antibodies conjugated to synthon CZ) were tested for binding to cell surface human B7-H3 by FACS (as described in Example 6) and for cell cytotoxicity in cell lines expressing B7-H3. […] Table 6 provides cell surface binding and cytotoxicity activity of anti-B7-H3 chimera ADCs against breast cancer cell HCC38 expressing human B7-H3.
row,Binder,EC50
1,"chAb14-CZ (antibody, IgG1, V domains shown, synthon CZ on reduced interchain Cys) VH: EVKLVESGGGLVKPGGSLKLSCAASGFTFSSYGMSWVRQTPEKRLEWVATISGGGTNTYYPDSVEGRFTISRDNAKNFLYLQMSSLRSEDTALYYCARHYGSQTMDYWGQGTSVTVSS VL: DIQMTQSPASLSASVGETVTITCRTSGNIHNYLTWYQQKQGKSPQLLVYNAKTLADGVPSRFSGSGSGTQFSLKINSLQPEDFGSYYCQHFWSIMWTFGGGTKLEIK",0.5 nM
2,"chAb6-CZ (antibody, IgG1, V domains shown, synthon CZ on reduced interchain Cys) VH: QVQLQQSGAELMKPGASVKISCKATGYTFSRYWIEWVKQRPGHGLEWIGEILPGSGSTNYNEKFKGKATFTADTSSNTAYMQVSSLTSEDSAVHYCARRGYGYVPYALDYWGQGTSVTVSS VL: EIQMTQTTSSLSASLGDRVTISCRASQDISNSLNWYQQKPDGTVNLLIYYTSRLYSGVPSRFSGSGSGTDYSLTISNLEQEDIATYFCQQGNTLPYTFGGGTKLEIK",0.56 nM
3,"chAb16-CZ (antibody, IgG1, V domains shown, synthon CZ on reduced interchain Cys) VH: EVKLLESGGGLVQPGGSLKLSCAASGFDFSRYWMSWVRQAPGKGLEWIGEINPDSSTINYTPSLKDKFIISRDNAKNTLYLQMSKVRSEDTALYYCARPGFGNYIYAMDYWGQGTSVTVSS VL: DIQMTQTTSSLSASLGDRVTINCRASQDISNFLNWYQQKPDGTVKLLIYYTSRLYLGVPSRFSGSGSGTDYSLTISNLEQEDIATYFCQQGNTLPPTFGGGTKLEIK",0.62 nM
4,"chAb18-CZ (antibody, IgG1, V domains shown, synthon CZ on reduced interchain Cys) VH: QVQLQQSAAELARPGASVKMSCKASGYSFTSYTIHWVKQRPGQGLEWIGYINPNSRNTDYNQKFKDETTLTADRSSSTAYMQLISLTSEDSAVYYCARYSGSTPYWYFDVWGAGTTVTVSS VL: QIVLTQSPAILSASPGEKVTMTCRASSSVSYMNWYQQKPGSSPKPWIYATSNLASGVPARFSVSVSGTSHSLTISRVEAEDAATYYCQQWSSNPLTFGAGTKLELK",1.78 nM
